In patent US20230203177A1 (Bristol-Myers Squibb, published 2023):
Residue numbers refer to the chain shown, from its start. Numbers in names are those of the source.

B1: M4 (HC-K12E / LC-wt) (antibody, human IgG1, kappa)
heavy: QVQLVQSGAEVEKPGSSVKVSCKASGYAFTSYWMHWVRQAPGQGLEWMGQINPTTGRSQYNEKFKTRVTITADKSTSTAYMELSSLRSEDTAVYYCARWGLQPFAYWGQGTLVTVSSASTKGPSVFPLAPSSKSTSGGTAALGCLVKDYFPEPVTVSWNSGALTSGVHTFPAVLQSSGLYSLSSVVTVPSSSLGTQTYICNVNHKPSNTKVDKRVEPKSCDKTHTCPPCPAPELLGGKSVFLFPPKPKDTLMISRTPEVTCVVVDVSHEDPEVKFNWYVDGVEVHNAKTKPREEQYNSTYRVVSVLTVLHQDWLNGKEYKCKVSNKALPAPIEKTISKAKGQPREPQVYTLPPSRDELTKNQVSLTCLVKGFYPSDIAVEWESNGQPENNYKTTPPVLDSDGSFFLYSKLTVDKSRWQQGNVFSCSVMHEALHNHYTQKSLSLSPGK
light: DIQMTQSPSFLSASVGDRVTITCKASQDVSTAVAWYQQKPGKAPKLLIYSASYRYTGVPSRFSGSGSGTDFTLTISSLQPEDFATYYCQQHYSTPWTFGGGTKVEIKRTVAAPSVFIFPPSDEQLKSGTASVVCLLNNFYPREAKVQWKVDNALQSGNSQESVTEQDSKDSTYSLSSTLTLSKADYEKHKVYACEVTHQGLSSPVTKSFNRGEC
notes: IgG1-P238K; two production batches; also called HC4/LC1; M4-b
B2: M10 (HC-R67E / LC-wt) (antibody, human IgG1, kappa)
heavy: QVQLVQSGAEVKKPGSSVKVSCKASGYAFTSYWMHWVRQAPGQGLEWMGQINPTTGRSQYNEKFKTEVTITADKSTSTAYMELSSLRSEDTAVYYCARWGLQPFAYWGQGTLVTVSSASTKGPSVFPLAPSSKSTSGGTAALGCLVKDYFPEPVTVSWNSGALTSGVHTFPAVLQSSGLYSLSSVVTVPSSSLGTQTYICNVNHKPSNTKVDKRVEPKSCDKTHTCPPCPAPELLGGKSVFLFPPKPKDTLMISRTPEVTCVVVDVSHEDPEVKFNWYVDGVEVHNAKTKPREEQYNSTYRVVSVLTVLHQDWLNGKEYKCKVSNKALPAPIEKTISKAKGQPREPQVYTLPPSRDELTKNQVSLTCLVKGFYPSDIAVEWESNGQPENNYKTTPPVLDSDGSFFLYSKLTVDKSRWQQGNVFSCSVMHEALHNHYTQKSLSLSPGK
light: B1 light
notes: IgG1-P238K; also called HC10/LC1
B3: M13 (HC-E46K,E62K / LC-wt) (antibody, human IgG1, kappa)
heavy: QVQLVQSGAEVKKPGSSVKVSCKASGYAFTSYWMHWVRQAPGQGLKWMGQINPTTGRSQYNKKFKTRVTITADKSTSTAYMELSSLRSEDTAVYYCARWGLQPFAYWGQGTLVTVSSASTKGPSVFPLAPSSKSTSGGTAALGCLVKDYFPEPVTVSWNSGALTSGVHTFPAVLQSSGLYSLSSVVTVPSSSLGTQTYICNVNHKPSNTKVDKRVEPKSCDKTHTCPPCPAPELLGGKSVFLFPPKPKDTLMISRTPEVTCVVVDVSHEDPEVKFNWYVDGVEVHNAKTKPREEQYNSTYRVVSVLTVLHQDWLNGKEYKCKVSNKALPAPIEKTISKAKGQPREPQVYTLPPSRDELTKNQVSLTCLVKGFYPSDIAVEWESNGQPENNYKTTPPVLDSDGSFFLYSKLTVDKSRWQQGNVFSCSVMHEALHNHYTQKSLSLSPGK
light: B1 light
notes: IgG1-P238K; proof of concept control with more positive charge; also called HC13/LC1
B4: M33 (HC-wt / LC-K45E) (antibody, human IgG1, kappa)
heavy: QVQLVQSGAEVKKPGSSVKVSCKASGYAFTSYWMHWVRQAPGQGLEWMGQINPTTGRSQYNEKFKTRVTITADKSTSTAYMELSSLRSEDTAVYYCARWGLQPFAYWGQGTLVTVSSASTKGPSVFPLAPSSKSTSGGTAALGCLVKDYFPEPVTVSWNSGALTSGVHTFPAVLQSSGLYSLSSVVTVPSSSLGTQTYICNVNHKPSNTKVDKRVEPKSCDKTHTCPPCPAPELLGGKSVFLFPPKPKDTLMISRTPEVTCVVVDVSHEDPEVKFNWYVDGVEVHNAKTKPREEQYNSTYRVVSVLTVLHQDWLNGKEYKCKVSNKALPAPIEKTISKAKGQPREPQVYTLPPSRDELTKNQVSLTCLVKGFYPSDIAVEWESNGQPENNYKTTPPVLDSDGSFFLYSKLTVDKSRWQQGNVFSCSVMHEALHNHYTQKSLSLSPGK
light: B1 light with K45E
notes: IgG1-P238K; also called HC1/LC3
B5: M36 (HC-K12E / LC-K45E) (antibody, human IgG1, kappa)
heavy: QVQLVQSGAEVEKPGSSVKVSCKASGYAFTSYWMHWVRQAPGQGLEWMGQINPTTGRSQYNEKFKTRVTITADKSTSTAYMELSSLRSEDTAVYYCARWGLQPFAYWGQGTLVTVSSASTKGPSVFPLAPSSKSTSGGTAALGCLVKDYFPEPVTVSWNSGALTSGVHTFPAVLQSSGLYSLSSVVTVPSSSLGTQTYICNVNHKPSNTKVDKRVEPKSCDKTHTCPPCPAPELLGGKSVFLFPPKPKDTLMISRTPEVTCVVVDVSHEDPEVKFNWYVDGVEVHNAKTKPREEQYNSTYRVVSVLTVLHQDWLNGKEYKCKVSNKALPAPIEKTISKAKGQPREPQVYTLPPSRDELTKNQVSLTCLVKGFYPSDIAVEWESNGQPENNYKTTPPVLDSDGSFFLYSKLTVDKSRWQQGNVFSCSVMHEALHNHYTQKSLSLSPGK
light: B1 light with K45E
notes: IgG1-P238K; also called HC4/LC3
B6: M37 (HC-K12E,K13Q,K23E / LC-K45E) (antibody, human IgG1, kappa)
heavy: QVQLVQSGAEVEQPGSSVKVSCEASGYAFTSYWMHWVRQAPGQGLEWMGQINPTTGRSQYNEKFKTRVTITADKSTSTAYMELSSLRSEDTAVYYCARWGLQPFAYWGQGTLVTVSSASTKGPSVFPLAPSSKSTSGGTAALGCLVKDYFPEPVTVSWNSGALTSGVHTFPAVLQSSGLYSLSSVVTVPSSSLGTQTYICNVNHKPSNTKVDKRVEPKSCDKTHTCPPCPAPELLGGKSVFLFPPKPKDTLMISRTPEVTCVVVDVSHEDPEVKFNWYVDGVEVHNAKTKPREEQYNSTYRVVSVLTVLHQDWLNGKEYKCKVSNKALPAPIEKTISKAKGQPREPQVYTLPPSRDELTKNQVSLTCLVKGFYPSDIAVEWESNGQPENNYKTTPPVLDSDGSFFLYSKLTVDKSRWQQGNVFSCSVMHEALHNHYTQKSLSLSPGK
light: B1 light with K45E
notes: IgG1-P238K; also called HC5/LC3
B7: M38 (HC-K12V,K19S,K23A / LC-K45E) (antibody, human IgG1, kappa, V domains shown)
VH: QVQLVQSGAEVVKPGSSVSVSCAASGYAFTSYWMHWVRQAPGQGLEWMGQINPTTGRSQYNEKFKTRVTITADKSTSTAYMELSSLRSEDTAVYYCARWGLQPFAYWGQGTLVTVSS
VL: DIQMTQSPSFLSASVGDRVTITCKASQDVSTAVAWYQQKPGKAPELLIYSASYRYTGVPSRFSGSGSGTDFTLTISSLQPEDFATYYCQQHYSTPWTFGGGTKVEIKR
notes: IgG1-P238K; also called HC6/LC3
B8: M47 (HC-R67Q / LC-K45E) (antibody, human IgG1, kappa, V domains shown)
VH: B7 VH with V12K, S19K, A23K, R67Q
VL: B7 VL
notes: IgG1-P238K; also called HC15/LC3
B9: M49 (HC-wt / LC-K45Q,R54Q,R61Q) (antibody, human IgG1, kappa)
heavy: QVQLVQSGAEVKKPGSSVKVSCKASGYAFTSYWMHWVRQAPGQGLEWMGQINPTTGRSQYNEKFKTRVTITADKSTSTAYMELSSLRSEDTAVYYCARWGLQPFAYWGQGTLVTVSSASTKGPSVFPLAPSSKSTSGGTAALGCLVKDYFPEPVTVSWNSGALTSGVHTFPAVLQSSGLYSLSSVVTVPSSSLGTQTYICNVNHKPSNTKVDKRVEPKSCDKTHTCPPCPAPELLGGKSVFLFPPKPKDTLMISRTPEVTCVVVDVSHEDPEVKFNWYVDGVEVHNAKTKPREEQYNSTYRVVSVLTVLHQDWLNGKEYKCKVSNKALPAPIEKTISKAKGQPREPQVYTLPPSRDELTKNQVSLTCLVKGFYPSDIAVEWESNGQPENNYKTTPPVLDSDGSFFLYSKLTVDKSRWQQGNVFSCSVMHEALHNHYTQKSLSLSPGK
light: B1 light with K45Q, R54Q, R61Q
notes: IgG1-P238K; also called HC1/LC4
B10: M53 (HC-K12E,K13Q,K23E / LC-K45Q,R54Q,R61Q) (antibody, human IgG1, kappa)
heavy: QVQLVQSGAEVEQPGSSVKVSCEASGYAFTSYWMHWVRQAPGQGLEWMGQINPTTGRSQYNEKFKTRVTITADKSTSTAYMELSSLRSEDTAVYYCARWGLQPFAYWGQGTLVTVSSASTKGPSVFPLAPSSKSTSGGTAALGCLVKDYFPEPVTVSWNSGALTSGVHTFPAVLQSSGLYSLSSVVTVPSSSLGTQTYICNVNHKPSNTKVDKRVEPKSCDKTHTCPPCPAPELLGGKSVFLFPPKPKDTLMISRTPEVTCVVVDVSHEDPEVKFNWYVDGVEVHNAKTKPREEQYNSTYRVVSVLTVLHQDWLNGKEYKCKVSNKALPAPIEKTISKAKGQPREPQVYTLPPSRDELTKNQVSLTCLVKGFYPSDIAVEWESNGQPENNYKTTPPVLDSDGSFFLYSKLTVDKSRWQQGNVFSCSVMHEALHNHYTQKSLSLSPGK
light: B1 light with K45Q, R54Q, R61Q
notes: IgG1-P238K; also called HC5/LC4
B11: M54 (HC-K12V,K19S,K23A / LC-K45Q,R54Q,R61Q) (antibody, human IgG1, kappa, V domains shown)
VH: B7 VH
VL: B7 VL with E45Q, R54Q, R61Q
notes: IgG1-P238K; also called HC6/LC4
B12: M62 (HC-K74T / LC-K45Q,R54Q,R61Q) (antibody, human IgG1, kappa, V domains shown)
VH: B7 VH with V12K, S19K, A23K, K74T
VL: B7 VL with E45Q, R54Q, R61Q
notes: IgG1-P238K; also called HC14/LC4
B13: M85 (HC-K12E,K13Q,K23E / LC-K107Q,R108Q) (antibody, human IgG1, kappa)
heavy: not shown
light: B1 light with K107Q, R108Q
notes: IgG1-P238K; also called HC5/LC6
B14: M86 (HC-K12V,K19S,K23A / LC-K107Q,R108Q) (antibody, human IgG1, kappa)
heavy: not shown
light: B1 light with K107Q, R108Q
notes: IgG1-P238K; also called HC6/LC6
B15: M87 (HC-K23E / LC-K107Q,R108Q) (antibody, human IgG1, kappa)
heavy: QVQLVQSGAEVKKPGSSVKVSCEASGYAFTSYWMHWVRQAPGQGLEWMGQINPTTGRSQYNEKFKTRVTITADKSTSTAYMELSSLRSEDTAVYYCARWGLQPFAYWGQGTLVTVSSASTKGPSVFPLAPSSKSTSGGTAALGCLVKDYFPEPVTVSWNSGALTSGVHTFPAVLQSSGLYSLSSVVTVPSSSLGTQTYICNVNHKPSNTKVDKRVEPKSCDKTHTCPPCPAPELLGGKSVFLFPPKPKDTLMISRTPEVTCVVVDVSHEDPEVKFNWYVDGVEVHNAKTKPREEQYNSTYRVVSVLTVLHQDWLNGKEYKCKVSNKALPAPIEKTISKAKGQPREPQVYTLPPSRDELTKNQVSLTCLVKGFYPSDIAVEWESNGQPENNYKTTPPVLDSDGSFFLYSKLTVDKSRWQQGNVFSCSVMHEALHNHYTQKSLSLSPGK
light: B1 light with K107Q, R108Q
notes: IgG1-P238K; also called HC7/LC6
B16: M88 (HC-R38Q,K63Q,R67Q / LC-K107Q,R108Q) (antibody, human IgG1, kappa)
heavy: not shown
light: B1 light with K107Q, R108Q
notes: IgG1-P238K; also called HC8/LC6
B17: M89 (HC-K63Q,R67E / LC-K107Q,R108Q) (antibody, human IgG1, kappa)
heavy: not shown
light: B1 light with K107Q, R108Q
notes: IgG1-P238K; also called HC9/LC6
B18: M90 (HC-R67E / LC-K107Q,R108Q) (antibody, human IgG1, kappa)
heavy: not shown
light: B1 light with K107Q, R108Q
notes: IgG1-P238K; also called HC10/LC6
B19: M91 (HC-R57E / LC-K107Q,R108Q) (antibody, human IgG1, kappa)
heavy: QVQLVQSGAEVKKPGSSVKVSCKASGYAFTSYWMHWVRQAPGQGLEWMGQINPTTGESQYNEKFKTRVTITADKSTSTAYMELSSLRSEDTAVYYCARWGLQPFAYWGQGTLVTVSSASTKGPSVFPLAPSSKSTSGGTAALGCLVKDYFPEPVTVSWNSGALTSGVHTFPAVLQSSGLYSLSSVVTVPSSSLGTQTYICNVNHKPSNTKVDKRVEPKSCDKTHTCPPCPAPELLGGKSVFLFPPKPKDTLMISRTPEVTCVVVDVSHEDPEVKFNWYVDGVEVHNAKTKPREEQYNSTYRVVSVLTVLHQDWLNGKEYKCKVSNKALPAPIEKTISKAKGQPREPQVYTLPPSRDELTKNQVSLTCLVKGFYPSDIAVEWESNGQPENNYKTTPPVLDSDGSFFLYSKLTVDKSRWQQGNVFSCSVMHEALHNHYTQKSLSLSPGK
light: B1 light with K107Q, R108Q
notes: IgG1-P238K; also called HC11/LC6
B20: M92 (HC-R57E,K74Q / LC-K107Q,R108Q) (antibody, human IgG1, kappa)
heavy: not shown
light: B1 light with K107Q, R108Q
notes: IgG1-P238K; also called HC12/LC6
B21: M93 (HC-E46K,E62K / LC-K107Q,R108Q) (antibody, human IgG1, kappa)
heavy: not shown
light: B1 light with K107Q, R108Q
notes: IgG1-P238K; also called HC13/LC6
B22: M94 (HC-K74T / LC-K107Q,R108Q) (antibody, human IgG1, kappa)
heavy: not shown
light: B1 light with K107Q, R108Q
notes: IgG1-P238K; also called HC14/LC6
B23: M95 (HC-R67Q / LC-K107Q,R108Q) (antibody, human IgG1, kappa)
heavy: not shown
light: B1 light with K107Q, R108Q
notes: IgG1-P238K; also called HC15/LC6
B24: M96 (HC-K63Q / LC-K107Q,R108Q) (antibody, human IgG1, kappa)
heavy: not shown
light: B1 light with K107Q, R108Q
notes: IgG1-P238K; also called HC16/LC6

Experiments:
[1] = target: T1, soluble human CD40 extracellular domain (human, UniProt P25942 21-193); experiment: SPR, Ab captured from supernatant on protein A, hCD40 ECD analyte
T1 construct: Produced in house; also called hCD40; soluble hCD40 extracellular domain
Protocol: The titer data (Table 21) were used to normalize the antibody concentration in each supernatant to 3 μg/ml, and these antibodies were captured out of the supernatants on a protein A CMS Series S sensor chip (GE Healthcare), and tested for binding to two concentrations (5 nM and 50 nM) of soluble hCD40 extracellular domain.
CD40 binding SPR of antibody supernatants: Surface plasmon resonance (SPR) studies were conducted on a BIAcore™ T200 instrument (GE Healthcare, Chicago Ill.). A Series S Protein A sensor chip (GE Healthcare, Chicago Ill.) was equilibrated with SPR running buffer of 10 mM NaPO₄, 130 mM NaCl, 0.05% tween 20, (PBS-T) pH 7.2 at 25° C. The 96 antibody supernatants were normalized to a concentration of 3 μg/ml by diluting with PBS-T using a PerkinElmer JANUS® G3 system (PerkinElmer, Akron, Ohio). After priming the system, the 3 μg/ml antibody samples were captured on the protein A surface for 30 s at 10 μl/min Binding of 50 nM and 500 nM human CD40 extracellular domain (produced in house) was evaluated using association time of 180 s at 30 μl/min, followed by a dissociation time of 180 s at 30 μl/min Regeneration between cycles was accomplished using two 15 s injections of 10 mM glycine pH 1.5. […] Data were analyzed using BIAcore™ T200 evaluation software by fitting to a 1:1 Langmuir model.

[2] = target: human CD40 on primary human tonsillar B cells (human, UniProt P25942 21-277); experiment: cell-based or functional assay
[3] = target: T1, soluble human CD40 extracellular domain; experiment: SPR, antibody captured from supernatant on protein A chip, soluble hCD40 ECD at 5 and 50 nM (summary table of the 16 chosen antibodies)
[4] = target: T1, soluble human CD40 extracellular domain; experiment: SPR, purified Ab on protein A, 6 concentrations of hCD40 ECD
Protocol: Additionally, to more accurately define the dissociation rate (kd), a longer dissociation time of 360 seconds (s) was used as opposed to the shorter 180 s dissociation that had been used in the supernatant screening experiment.
CD40 binding SPR: SPR studies of the purified antibodies were conducted on BIAcore™ T200 instrument (GE Healthcare, Chicago Ill.). A Series S Protein A sensor chip (GE Healthcare, Chicago Ill.) was equilibrated with SPR running buffer of 10 mM NaPO₄, 130 mM NaCl, 0.05% tween 20, (PBS-T) pH 7.2 at 25° C. The purified antibody samples were diluted to 3 μg/ml in PBS-T and captured on the protein A surface for 30 s at 10 μl/min Binding of 3.91, 7.81, 15.6, 31.3, 62.5, and 125 nM human CD40 extracellular domain (produced in house) was evaluated using association time of 180 s at 30 μl/min, followed by a dissociation time of 360 s at 30 μl/min Regeneration between cycles was accomplished using two 15 s injections of 10 mM glycine pH 1.5. […] Data were analyzed using BIAcore™ T200 evaluation software by fitting to a 1:1 Langmuir model.

T1 sequence (P25942 21-193 limits assumed): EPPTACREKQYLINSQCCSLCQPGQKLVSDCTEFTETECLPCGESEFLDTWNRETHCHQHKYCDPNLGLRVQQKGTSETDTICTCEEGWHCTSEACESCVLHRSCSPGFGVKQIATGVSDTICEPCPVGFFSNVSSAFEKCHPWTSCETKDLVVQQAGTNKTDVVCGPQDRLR
human CD40 on primary human tonsillar B cells, sequence (P25942 21-277 limits assumed): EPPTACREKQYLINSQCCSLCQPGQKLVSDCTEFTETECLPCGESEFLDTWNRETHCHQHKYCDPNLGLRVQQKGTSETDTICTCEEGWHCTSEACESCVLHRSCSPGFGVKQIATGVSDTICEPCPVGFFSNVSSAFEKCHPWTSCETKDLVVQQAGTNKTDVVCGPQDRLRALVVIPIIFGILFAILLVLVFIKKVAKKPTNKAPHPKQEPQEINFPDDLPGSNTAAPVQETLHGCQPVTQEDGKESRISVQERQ

Binder	Kd [1] [nM]	IC50, inhibition of tonsillar human B cell proliferation stimulated by IZ-hCD40L trimer (M4 lot 1) [2] [µg/mL]	IC50, inhibition of tonsillar human B cell proliferation stimulated by IZ-hCD40L trimer (M4 lot 2) [2] [µg/mL]	IC50, inhibition of tonsillar human B cell proliferation stimulated by hCD40L expressing CHO cells (M4 lot 1) [2] [µg/mL]	IC50, inhibition of tonsillar human B cell proliferation stimulated by hCD40L expressing CHO cells (M4 lot 2) [2] [µg/mL]	Kd [3] [nM]	Kd [4] [nM]	koff [4] [s⁻¹]	kon [4] [M⁻¹ s⁻¹]	IC50, inhibition of tonsillar human B cell proliferation stimulated by IZ-hCD40L trimer [2] [µg/mL]	IC50, inhibition of tonsillar human B cell proliferation stimulated by hCD40L expressing CHO cells [2] [µg/mL]
B1	3.6	0.0029	0.0008	0.0237	0.0396	3.6	2.8	0.00069	250000		
B2	3					3	2.3	0.00067	290000	0.0277	0.353
B3	8					8	8.4	0.00068	81000	0.0033	0.0208
B4	4					4	2.9	0.00073	260000	0.0009	0.0575
B5	3.4					3.4	2.6	0.00078	300000	0.0026	0.0477
B6	4.1					4.1	3.3	0.00084	250000	0.0009	0.129
B7	3.9					3.9	2.8	0.00077	280000	0.0072	0.181
B8	3.2					3.2	2.2	0.00074	330000	0.0004	0.0547
B9	3					3	2.2	0.0007	320000	0.0007	0.0672
B10	3.2					3.2	2.5	0.0008	320000	0.0034	0.367
B11	3					3	2.3	0.00075	330000	0.0033	0.201
B12	3.1					3.1	2.2	0.00066	300000	0.0062	0.356
B13	3.3										
B14	3.7										
B15	4.3										
B16	3.2										
B17	3.3										
B18	3										
B19	9.6										
B20	13.4										
B21	8.1										
B22	3.6										
B23	3.4										
B24	3.9										
